Measured values taken from patent CN106117361A.

Molecular target: CD3 on Jurkat cells (Jurkat靶标细胞) (UniProt P07766)
Experiment: flow cytometry, culture supernatant on Jurkat cells (negative control; TG1 background 132.03)

Sequence of UniProt P07766 (P07766 23-207): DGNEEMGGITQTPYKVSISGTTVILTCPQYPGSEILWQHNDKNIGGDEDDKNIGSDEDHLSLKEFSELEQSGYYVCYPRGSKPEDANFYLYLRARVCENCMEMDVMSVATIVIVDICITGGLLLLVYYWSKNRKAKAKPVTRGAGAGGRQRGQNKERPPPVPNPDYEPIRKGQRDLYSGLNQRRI

结合MFI: 115 MFI
Substance: NC-sdAb(相同形式的非相关性sdAb) (VHH)
